Data as given in article PMC8866397.

Assays:
HMGN1 = experiment: two-color EMSA; settings: value stated for HMGNs together, EMSA: 100 nM nucleosomes in 10 µl 2x TBE (45 mM Tris-borate pH 8.3, 1 mM EDTA), 0.15 mg/ml BSA, 5% Ficoll, 10 min at 4 °C, native 5% PAGE in 2x TBE …
HMGN2 = experiment: two-color EMSA; settings: value stated for HMGNs together, EMSA: 100 nM nucleosomes in 10 µl 2x TBE (45 mM Tris-borate pH 8.3, 1 mM EDTA), 0.15 mg/ml BSA, 5% Ficoll, 10 min at 4 °C, native 5% PAGE in 2x TBE …
[1] = low HMGN:nucleosome ratio, histone H3K27ac, scale: ratio of shifted rMNH3K27ac to rMN fluorescence
[2] = no preference over rMN, histone H3K27me3, scale: ratio of shifted rMNH3K27me3 to rMN fluorescence

## rMNH3K27ac
HMGN1; [1]
  binding signal: 1.7
HMGN2; [1]
  binding signal: 1.7

## rMNH3K27me3
HMGN1; [2]
  binding signal: 1
HMGN2; [2]
  binding signal: 1
